Here are results for seven molecules from publication PMC12809495, “Potential 14-3-3 binding sites in sirtuins reveal extended phosphosite-recognition modes” (Acta Crystallographica Section F: Structural Biology …, 2026).

For one test, the target named is T1, 14-3-3 isoform theta (Homo sapiens, UniProt P27348).
T1 construct: His6; made in house; host or cells: Escherichia coli BL21 Rosetta (DE3)
T1 sequence (P27348 1-245): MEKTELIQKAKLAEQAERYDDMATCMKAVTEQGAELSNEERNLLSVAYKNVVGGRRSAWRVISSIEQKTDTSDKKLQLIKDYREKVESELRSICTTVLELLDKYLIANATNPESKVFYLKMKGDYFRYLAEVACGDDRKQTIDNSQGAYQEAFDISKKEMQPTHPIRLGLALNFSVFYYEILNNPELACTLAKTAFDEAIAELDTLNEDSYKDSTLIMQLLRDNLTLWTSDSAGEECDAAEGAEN
Briefly: Label-free microscale thermophoresis (MST) binding, 14-3-3 theta. To be noted: label-free MST, 0.6 µM 14-3-3 protein, 25 mM MES pH 6.5, 5 mM MgCl2, 5 mM CaCl2, 25°C; Kd from duplicate measurements; read-out: Affinity estimates by MicroScale Thermophoresis, 14-3-3 isoform theta (Kd). Here is the method: (§1) The binding of phosphorylated sirtuin peptides (Fig. 1 ▸) was analyzed using the change in the intrinsic fluorescence signal of the 14-3-3 proteins measured with label-free microscale thermophoresis using a Nanotemper Monolith NT.LabelFree or NT.115. A typical binding experiment using 0.6 µM 14-3-3 protein was performed in a modified MST buffer consisting of 25 mM MES pH 6.5, 5 mM MgCl2, 5 mM CaCl2. The measurements were performed at 25°C using a LED power of 10–40%. All measurements were performed at least in duplicate, and the results shown are representative measurements individually fitted using GraFit 7 (Erathicus Software, Horley, United Kingdom).
(§2) Figure 1 Classification and analysis of sirtuin PSSM results for potential 14-3-3 phosphoserine binding sites. Peptides with a gray background were not analyzed experimentally. Score is the overall PSSM score for the phosphorylation site; rank is the order within the 17 proposed sirtuin binding sites. Conserved residues in the 14-3-3 motifs are marked in green. Residues with restricted (proline) or very flexible (glycine) protein backbone or with a very large side chain (tryptophan) are marked in red. Amino acids with the same or similar hydrophobicity/size are shown in magenta. Kd values from duplicate measurements are colored green for Kd < 100 µM. Fields marked in red indicate no binding or no successful experiment. TEXT PRINTED IN THE PICTURE: Sirt1 S26: Affinity estimates by MicroScale Thermophoresis [μM], 14-3-3 isoform sigma: none | Sirt1 S670: Affinity estimates by MicroScale Thermophoresis [μM], 14-3-3 isoform gamma: aggr.; Affinity estimates by MicroScale Thermophoresis [μM], 14-3-3 isoform epsilon: > 183; Affinity estimates by MicroScale Thermophoresis [μM], 14-3-3 isoform theta: 93; Affinity estimates by MicroScale Thermophoresis [μM], 14-3-3 isoform sigma: 5 | Sirt3 S103: Affinity estimates by MicroScale Thermophoresis [μM], 14-3-3 isoform gamma: aggr.; Affinity estimates by MicroScale Thermophoresis [μM], 14-3-3 isoform epsilon: > 267; Affinity estimates by MicroScale Thermophoresis [μM], 14-3-3 isoform theta: 52; Affinity estimates by MicroScale Thermophoresis [μM], 14-3-3 isoform sigma: 10 | Sirt3 S103wt: Affinity estimates by MicroScale Thermophoresis [μM], 14-3-3 isoform gamma: aggr.; Affinity estimates by MicroScale Thermophoresis [μM], 14-3-3 isoform theta: none; Affinity estimates by MicroScale Thermophoresis [μM], 14-3-3 isoform sigma: none | Sirt3 S105: Affinity estimates by MicroScale Thermophoresis [μM], 14-3-3 isoform gamma: aggr.; Affinity estimates by MicroScale Thermophoresis [μM], 14-3-3 isoform epsilon: > 215; Affinity estimates by MicroScale Thermophoresis [μM], 14-3-3 isoform theta: 60; Affinity estimates by MicroScale Thermophoresis [μM], 14-3-3 isoform sigma: none | Sirt5 S168: Affinity estimates by MicroScale Thermophoresis [μM], 14-3-3 isoform epsilon: aggr.; Affinity estimates by MicroScale Thermophoresis [μM], 14-3-3 isoform theta: aggr.; Affinity estimates by MicroScale Thermophoresis [μM], 14-3-3 isoform sigma: > 329 | Sirt6 T337: Affinity estimates by MicroScale Thermophoresis [μM], 14-3-3 isoform epsilon: > 420; Affinity estimates by MicroScale Thermophoresis [μM], 14-3-3 isoform sigma: 12 | Sirt6 S338: Affinity estimates by MicroScale Thermophoresis [μM], 14-3-3 isoform epsilon: 19; Affinity estimates by MicroScale Thermophoresis [μM], 14-3-3 isoform sigma: 24 | Sirt7 S136: Affinity estimates by MicroScale Thermophoresis [μM], 14-3-3 isoform epsilon: none; Affinity estimates by MicroScale Thermophoresis [μM], 14-3-3 isoform theta: 30; Affinity estimates by MicroScale Thermophoresis [μM], 14-3-3 isoform sigma: 49

In another test the target is T2, 14-3-3 isoform epsilon (Homo sapiens, UniProt P62258).
T2 construct: His6; made in house; host or cells: Escherichia coli BL21 Rosetta (DE3)
T2 sequence (P62258 1-255): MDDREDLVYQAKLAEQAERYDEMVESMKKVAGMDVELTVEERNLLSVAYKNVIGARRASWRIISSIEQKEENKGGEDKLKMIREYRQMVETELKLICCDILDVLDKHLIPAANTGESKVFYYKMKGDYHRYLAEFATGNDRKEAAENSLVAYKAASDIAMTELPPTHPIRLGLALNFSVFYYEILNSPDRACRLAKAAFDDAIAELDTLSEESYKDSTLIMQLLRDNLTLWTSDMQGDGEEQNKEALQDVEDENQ
In words: Label-free microscale thermophoresis (MST) binding, 14-3-3 epsilon. To be noted: label-free MST, 0.6 µM 14-3-3 protein, 25 mM MES pH 6.5, 5 mM MgCl2, 5 mM CaCl2, 25°C; Kd from duplicate measurements. Here is the method:
as §1, §2
Background: Microscale thermophoresis detects binding through changes in fluorescence in a small temperature gradient.

A further test concerns the target T3, 14-3-3 epsilon (Homo sapiens).
T3 chain: T2 sequence (P62258 1-255)
Briefly: MST.

In test [1] the target is T4, 14-3-3σ-ΔC (C-terminally truncated human 14-3-3σ) (human, UniProt P31947 1-231).
T4 chain: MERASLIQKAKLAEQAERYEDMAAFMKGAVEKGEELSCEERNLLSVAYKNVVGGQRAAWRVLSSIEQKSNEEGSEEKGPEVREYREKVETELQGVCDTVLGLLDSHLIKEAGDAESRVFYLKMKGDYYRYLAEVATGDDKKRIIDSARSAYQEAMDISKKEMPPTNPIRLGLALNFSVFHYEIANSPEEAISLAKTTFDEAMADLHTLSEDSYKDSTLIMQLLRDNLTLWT
Briefly: MST.

The target of another test is T5, 14-3-3 theta (Homo sapiens).
T5 chain: T1 sequence (P27348 1-245)
Briefly: MST.

Where a SMILES comes first, the peptide text is derived from it. Where no end group is shown, it is not given here. [ ]: non-standard residue; d: D form. pT = C[C@@H](OP(=O)(O)O)[C@H](N)C(=O)O; pS = N[C@@H](COP(=O)(O)O)C(=O)O A value given as a limit tells only on which side of the number the result lay.

As a reminder, the Kd is the constant that tells how readily two partners part at equilibrium. With `CC(C)C[C@H](NC(=O)[C@H](CC(=O)O)NC(=O)[C@H](C)NC(=O)[C@H](C)NC(=O)[C@H](COP(=O)(O)O)NC(=O)[C@@H](NC(=O)[C@H](CO)NC(=O)[C@H](CCCNC(=N)N)NC(=O)CNC(=O)[C@@H](N)CCCCN)C(C)C)C(=O)N[C@@H](CO)C(=O)O` [Sirt7 S136] (H-KGRSV[pS]AADLS-OH), the dissociation constant Kd on 14-3-3 isoform theta was 30 µM. In addition, the “Affinity estimates by MicroScale Thermophoresis, 14-3-3 isoform epsilon (Kd)” value on 14-3-3 isoform epsilon is given as “none”.

B1: Sirt6^pT336 phospho-endecamer peptide (peptide)
chain: KRERP[pT]SPAPH
For B1, the Kd with 14-3-3 epsilon was above 420 µM; in test [1], 12 µM.

B2: Sirt6^pS338 phospho-endecamer peptide (peptide)
chain: RERPT[pS]PAPHR
On to B2, for which the Kd with 14-3-3 epsilon came to 19 µM; in test [1], 24 µM.

B3: Sirt7 pS136 (peptide)
chain: KGRSV[pS]AADLS
In turn, B3 registered a Kd in test [1] of 49 µM.

B4: Sirt5 pS168 (peptide)
chain: KTRCT[pS]CGVVA
modifications: cysteine pairing not given here
Regarding B4, in test [1], the Kd was above 329 µM.

B5: Sirt7 pS136 (peptide)
chain: KGRSV[pS]AADLS
Molecule B5 had a Kd with 14-3-3 theta of 30 µM.

B6: Sirt3^pS105 phospho-endecamer peptide (peptide)
chain: RSISF[pS]VGASS
modifications: also: phosphoserine at 105 (place in chain not given here)
Turning to B6, the Kd with 14-3-3 epsilon was above 215 µM; in the test with 14-3-3 theta, 60 µM.
